In paper PMC5492955:

Target: the single-site mutations V130C and L210C
Experiment: radioligand binding

With “glucagon (from UniProt P01275) (peptide)” as the substance, how does the glucagon binding (% of WT) read?
The glucagon binding (% of WT) was 50%.
